Assay results as given in the supplement of paper PMC9112550, “Optimization of the antimicrobial peptide Bac7 by deep mutational scanning” (BMC Biology, 2022).

The sequences below were run on Escherichia coli TOP10 (assay: shrunken log2 fold change of peptide-encoding DNA abundance (4.5 h post-induction vs induction); higher = less antimicrobial activity (less host growth inhibition)). Details: time post-induction: 4.5 h; library: site-saturation at positions 5, 18, 19, 20.
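Further: peptides expressed intracellularly from a pBAD plasmid library in pooled LB shake-flask culture, induced with 0.3% L-arabinose, DNA abundance read by NGS, three biological replicates, DESeq2 with apeglm shrinkage.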

| Sequence | shrunken log2 fold change |
| --- | --- |
| RRIRFRPPRLPRPRPRPAEYPRP | -0.397 |
| RRIRFRPPRLPRPRPRPAFPPRP | 0.00578 |
| RRIRFRPPRLPRPRPRPAGIPRP | -0.161 |
| RRIRFRPPRLPRPRPRPAGMPRP | -0.124 |
| RRIRFRPPRLPRPRPRPAIFPRP | -0.416 |
| RRIRFRPPRLPRPRPRPAISPRP | -0.193 |
| RRIRFRPPRLPRPRPRPAQNPRP | 0.348 |
| RRIRFRPPRLPRPRPRPAQWPRP | 0.296 |
| RRIRFRPPRLPRPRPRPASPPRP | 0.164 |
| RRIRFRPPRLPRPRPRPAVAPRP | 0.196 |
| RRIRFRPPRLPRPRPRPCALPRP | -0.554 |
| RRIRFRPPRLPRPRPRPCCPPRP | -0.468 |
| RRIRFRPPRLPRPRPRPCDRPRP | -0.179 |
| RRIRFRPPRLPRPRPRPCDTPRP | -0.09 |
| RRIRFRPPRLPRPRPRPCFDPRP | -0.121 |
| RRIRFRPPRLPRPRPRPCGKPRP | -0.018 |
| RRIRFRPPRLPRPRPRPCGNPRP | -0.0344 |
| RRIRFRPPRLPRPRPRPCGPPRP | 0.243 |
| RRIRFRPPRLPRPRPRPCIQPRP | -0.0483 |
| RRIRFRPPRLPRPRPRPCKLPRP | -1.48 |
| RRIRFRPPRLPRPRPRPCKTPRP | 0.00592 |
| RRIRFRPPRLPRPRPRPCLSPRP | -0.0617 |
| RRIRFRPPRLPRPRPRPCMIPRP | -0.118 |
| RRIRFRPPRLPRPRPRPCNLPRP | -0.264 |
| RRIRFRPPRLPRPRPRPCNNPRP | -0.82 |

| Sequence | shrunken log2 fold change |
| --- | --- |
| RRIRFRPPRLPRPRPRPCNSPRP | -0.0848 |
| RRIRFRPPRLPRPRPRPCPAPRP | 1.36 |
| RRIRFRPPRLPRPRPRPCQYPRP | -0.53 |
| RRIRFRPPRLPRPRPRPCTCPRP | -0.187 |
| RRIRFRPPRLPRPRPRPCTGPRP | 0.0368 |
| RRIRFRPPRLPRPRPRPCTHPRP | -0.842 |
| RRIRFRPPRLPRPRPRPCTTPRP | -0.381 |
| RRIRFRPPRLPRPRPRPCWSPRP | -0.443 |
| RRIRFRPPRLPRPRPRPCYFPRP | -0.379 |
| RRIRFRPPRLPRPRPRPDANPRP | -0.138 |
| RRIRFRPPRLPRPRPRPDCFPRP | -0.00719 |
| RRIRFRPPRLPRPRPRPDCSPRP | 0.0229 |
| RRIRFRPPRLPRPRPRPDDHPRP | -0.139 |
| RRIRFRPPRLPRPRPRPDENPRP | -0.0759 |
| RRIRFRPPRLPRPRPRPDFNPRP | -0.637 |
| RRIRFRPPRLPRPRPRPDIDPRP | 0.0707 |
| RRIRFRPPRLPRPRPRPDLRPRP | -0.108 |
| RRIRFRPPRLPRPRPRPDRPPRP | 0.033 |
| RRIRFRPPRLPRPRPRPDSWPRP | -0.161 |
| RRIRFRPPRLPRPRPRPDYDPRP | -0.0802 |
| RRIRFRPPRLPRPRPRPDYRPRP | -0.0359 |
| RRIRFRPPRLPRPRPRPDYYPRP | -1.21 |
| RRIRFRPPRLPRPRPRPEAKPRP | 0.0369 |
| RRIRFRPPRLPRPRPRPEFSPRP | 0.0686 |
| RRIRFRPPRLPRPRPRPEGFPRP | 0.518 |

| Sequence | shrunken log2 fold change |
| --- | --- |
| RRIRFRPPRLPRPRPRPEGIPRP | 0.00745 |
| RRIRFRPPRLPRPRPRPEHDPRP | -0.446 |
| RRIRFRPPRLPRPRPRPEIRPRP | 0.0106 |
| RRIRFRPPRLPRPRPRPEIWPRP | 0.217 |
| RRIRFRPPRLPRPRPRPEIYPRP | 0.0026 |
| RRIRFRPPRLPRPRPRPEKIPRP | 0.102 |
| RRIRFRPPRLPRPRPRPEKMPRP | 0.0434 |
| RRIRFRPPRLPRPRPRPELEPRP | 0.537 |
| RRIRFRPPRLPRPRPRPELGPRP | 0.144 |
| RRIRFRPPRLPRPRPRPELPPRP | -0.0615 |
| RRIRFRPPRLPRPRPRPEMTPRP | -0.328 |
| RRIRFRPPRLPRPRPRPENLPRP | -0.0251 |
| RRIRFRPPRLPRPRPRPENQPRP | -0.00277 |
| RRIRFRPPRLPRPRPRPENRPRP | -0.0215 |
| RRIRFRPPRLPRPRPRPEPDPRP | -0.0658 |
| RRIRFRPPRLPRPRPRPEPEPRP | 0.864 |
| RRIRFRPPRLPRPRPRPEQIPRP | 0.131 |
| RRIRFRPPRLPRPRPRPEQTPRP | -0.0498 |
| RRIRFRPPRLPRPRPRPERAPRP | 0.611 |
| RRIRFRPPRLPRPRPRPERSPRP | 0.0713 |
| RRIRFRPPRLPRPRPRPESAPRP | 0.428 |
| RRIRFRPPRLPRPRPRPESEPRP | 0.0687 |
| RRIRFRPPRLPRPRPRPESQPRP | -0.0723 |
| RRIRFRPPRLPRPRPRPESTPRP | -0.00608 |
| RRIRFRPPRLPRPRPRPETEPRP | -0.0257 |

| Sequence | shrunken log2 fold change |
| --- | --- |
| RRIRFRPPRLPRPRPRPETLPRP | 0.0591 |
| RRIRFRPPRLPRPRPRPETYPRP | -0.0354 |
| RRIRFRPPRLPRPRPRPEWFPRP | 0.0431 |
| RRIRFRPPRLPRPRPRPEYMPRP | -0.421 |
| RRIRFRPPRLPRPRPRPEYYPRP | -0.0413 |
| RRIRFRPPRLPRPRPRPFCEPRP | -0.124 |
| RRIRFRPPRLPRPRPRPFCQPRP | -0.317 |
| RRIRFRPPRLPRPRPRPFDCPRP | -0.0469 |
| RRIRFRPPRLPRPRPRPFFTPRP | -0.227 |
| RRIRFRPPRLPRPRPRPFGCPRP | -0.0616 |
| RRIRFRPPRLPRPRPRPFGRPRP | -0.199 |
| RRIRFRPPRLPRPRPRPFHDPRP | -0.149 |
| RRIRFRPPRLPRPRPRPFIWPRP | -0.312 |
| RRIRFRPPRLPRPRPRPFLDPRP | -0.169 |
| RRIRFRPPRLPRPRPRPFLKPRP | -0.145 |
| RRIRFRPPRLPRPRPRPFMMPRP | -0.693 |
| RRIRFRPPRLPRPRPRPFMSPRP | -0.0532 |
| RRIRFRPPRLPRPRPRPFMYPRP | -0.742 |
| RRIRFRPPRLPRPRPRPFNHPRP | -0.285 |
| RRIRFRPPRLPRPRPRPFNLPRP | -0.66 |
| RRIRFRPPRLPRPRPRPFPGPRP | -0.00776 |
| RRIRFRPPRLPRPRPRPFPLPRP | -0.289 |
| RRIRFRPPRLPRPRPRPFQRPRP | 0.0192 |
| RRIRFRPPRLPRPRPRPFQYPRP | -0.127 |
| RRIRFRPPRLPRPRPRPFRVPRP | -0.119 |

| Sequence | shrunken log2 fold change |
| --- | --- |
| RRIRFRPPRLPRPRPRPFSAPRP | -0.274 |
| RRIRFRPPRLPRPRPRPFTFPRP | -0.41 |
| RRIRFRPPRLPRPRPRPFWGPRP | 0.0215 |
| RRIRFRPPRLPRPRPRPFYNPRP | -0.468 |
| RRIRFRPPRLPRPRPRPFYTPRP | -0.89 |
| RRIRFRPPRLPRPRPRPGACPRP | -0.0223 |
| RRIRFRPPRLPRPRPRPGAPPRP | 0.54 |
| RRIRFRPPRLPRPRPRPGDTPRP | -0.309 |
| RRIRFRPPRLPRPRPRPGDVPRP | -0.014 |
| RRIRFRPPRLPRPRPRPGEHPRP | -0.0294 |
| RRIRFRPPRLPRPRPRPGEVPRP | 0.185 |
| RRIRFRPPRLPRPRPRPGFKPRP | 0.122 |
| RRIRFRPPRLPRPRPRPGGLPRP | 0.217 |
| RRIRFRPPRLPRPRPRPGGVPRP | 0.106 |
| RRIRFRPPRLPRPRPRPGIKPRP | -0.137 |
| RRIRFRPPRLPRPRPRPGISPRP | -0.0961 |
| RRIRFRPPRLPRPRPRPGIYPRP | -0.184 |
| RRIRFRPPRLPRPRPRPGKPPRP | -0.0809 |
| RRIRFRPPRLPRPRPRPGLMPRP | -0.125 |
| RRIRFRPPRLPRPRPRPGLRPRP | 0.23 |
| RRIRFRPPRLPRPRPRPGLTPRP | -0.143 |
| RRIRFRPPRLPRPRPRPGMAPRP | -0.058 |
| RRIRFRPPRLPRPRPRPGMSPRP | 0.0155 |
| RRIRFRPPRLPRPRPRPGPAPRP | 0.544 |
| RRIRFRPPRLPRPRPRPGPLPRP | 0.262 |

| Sequence | shrunken log2 fold change |
| --- | --- |
| RRIRFRPPRLPRPRPRPGRCPRP | 0.259 |
| RRIRFRPPRLPRPRPRPGRWPRP | 0.653 |
| RRIRFRPPRLPRPRPRPGVNPRP | 0.0431 |
| RRIRFRPPRLPRPRPRPGVRPRP | -0.118 |
| RRIRFRPPRLPRPRPRPGVTPRP | 0.0815 |
| RRIRFRPPRLPRPRPRPGYGPRP | 0.019 |
| RRIRFRPPRLPRPRPRPHAQPRP | -0.305 |
| RRIRFRPPRLPRPRPRPHAYPRP | -0.118 |
| RRIRFRPPRLPRPRPRPHCCPRP | -0.166 |
| RRIRFRPPRLPRPRPRPHCQPRP | -0.125 |
| RRIRFRPPRLPRPRPRPHCYPRP | 0.149 |
| RRIRFRPPRLPRPRPRPHFFPRP | -0.053 |
| RRIRFRPPRLPRPRPRPHFGPRP | -0.197 |
| RRIRFRPPRLPRPRPRPHFKPRP | -0.599 |
| RRIRFRPPRLPRPRPRPHFMPRP | -0.538 |
| RRIRFRPPRLPRPRPRPHFVPRP | -0.176 |
| RRIRFRPPRLPRPRPRPHGLPRP | 0.0196 |
| RRIRFRPPRLPRPRPRPHKWPRP | -0.073 |
| RRIRFRPPRLPRPRPRPHLYPRP | -0.355 |
| RRIRFRPPRLPRPRPRPHNAPRP | -0.54 |
| RRIRFRPPRLPRPRPRPHPHPRP | -0.168 |
| RRIRFRPPRLPRPRPRPHQQPRP | 0.0921 |
| RRIRFRPPRLPRPRPRPHQSPRP | -0.114 |
| RRIRFRPPRLPRPRPRPHRDPRP | -0.36 |
| RRIRFRPPRLPRPRPRPHTSPRP | -0.907 |
